The test addresses T1, CLL1 (expressed on K562-CLL1 cells) (human, UniProt Q5QGZ9).
T1 chain: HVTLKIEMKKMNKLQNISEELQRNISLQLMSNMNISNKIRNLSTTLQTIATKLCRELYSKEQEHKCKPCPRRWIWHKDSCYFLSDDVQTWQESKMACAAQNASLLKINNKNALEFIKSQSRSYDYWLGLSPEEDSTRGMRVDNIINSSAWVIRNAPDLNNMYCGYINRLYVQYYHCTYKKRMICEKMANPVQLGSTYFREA
Nature of the test: FACS, K562-CLL1 cells, room temperature, bivalent Fc fusion. A general note: In flow cytometry, cells or beads pass a laser one at a time.

The values that follow come from patent US20260374878 (published 2026).

B1: CLL1-VHH-16-hFc (antibody)
chain 1: DVQLQESGGGLVQPGGSLRLSCAASGFTFGSYDMTWVRQAPGKGPEWVSGINSGGSSTYYADSVKGRFTISRDNAKNTLYLQMNSLKPEDTAVYYCATIDRLSTVVAGTYQPSEEYDYWGQGTQVTVSS
chain 2: not shown
Regarding B1, the Kd was found to be 5 nM.
